Laboratory results published in patent US20240238380A1, “COMPOSITION FOR COMBINATION THERAPY COMPRISING GROWTH DIFFERENTIATION FACTOR-15 VARIANT AND GLUCAGON-LIKE PEPTIDE-1 RECEPTOR AGONIST” (YUHAN CORPORATION, priority 2021, published 2024).
Marks after values point to notes of the source that are not given here.

Tests used:
[1] = Inhibitory effect on gastric emptying (acetaminophen exposure) in normal rats (Example 8); format: in vivo; conditions: rats, 30 mg/kg oral, positive control
Method: Therefore, this example was performed to investigate the inhibitory effect on gastric emptying when the novel long-acting GDF15 fusion protein was administered at the doses equal to the effective dose, higher than the maximum effective dose, or in combination with a GLP-1 receptor agonist to rats. 6-week-old male SD rats (Orient Bio, Republic of Korea) were purchased from Hallym Lab. Animal Inc., Republic of Korea. Animals were acclimated for 7 days. On the day of drug administration, the rats were grouped based on the average body weight of individual rats (n=5 per group) and fasted for at least 6 hours before oral administration of acetaminophen. Then, 0.1, 1, and 10 nmol/kg of FM9-6+Fc_hole, 10 nmol/kg of semaglutide (long-acting GLP-1 derivative, SEQ ID NO: 114), and combination of FM9-6+Fc_hole and semaglutide (1+10 nmol/kg) were subcutaneously administered. The semaglutide was Ozempic® (semaglutide) from Novo NorDisk. As a negative control drug, D-PBS (normal vehicle) was subcutaneously administered, and as a positive control drug, 30 mg/kg of loperamide was orally administered 45 minutes before acetaminophen administration. On 3, 24 and 72 hours after a single dose of the test articles, acetaminophen was orally administered at 100 mg/kg to rats, and blood samples were collected before and at 30, 60, 90, 120 and 150 minutes after acetaminophen administration. The plasma concentration of acetaminophen was analyzed, and the pharmacokinetic profiles and the systemic exposures of acetaminophen were compared to evaluate the inhibitory effect on gastric emptying among the groups.

[2] = biological target: T1, GFRAL/RET/SRE-luc-overexpressing HEK293 cell line (Homo sapiens, UniProt Q6UXV0); assay: Functional activity of long-acting GDF15 fusion protein (Bright-Glo luciferase assay); format: cell-based; conditions: for EC50: luciferase RLU, 4 hours reaction; for Emax (%): relative to FM9-6+Fc_hole (Emax 100%); for EC50 values (in words) / Emax values (in words): compared with the other linkers
T1 construct: expressed in transfected cells; host or cells: HEK293 (human embryonic kidney 293), overexpressing GFRAL, RET and an SRE-luciferase reporter
Method: Two variants (FM9+Fc_hole, FM11+Fc_hole) were compared and evaluated for GDF15 activity depending on the linker type and length. The GDF15 activity was measured using a Bright-Glo™ luciferase assay kit (Promega) and a GFRAL/RET/SRE-luc-overexpressing HEK293 cell line (Human embryonic kidney 293).
Specifically, 1×10^5 GFRAL/RET/SRE-luc-overexpressing HEK293 cells were dispended in DMEM containing 10% FBS in each well of a 96-well-plate, followed by culture at 37° C. and 5% CO2 for 24 hours. After 24 hours, each medium of the 96-well plate was replaced with 50 μl of a serum-free medium, followed by culture at 37° C. and 5% CO2 for 4 hours.
In addition, the long-acting GDF15 fusion protein produced in Example 1 was prepared by 3-fold serial dilution from a concentration of 2000 nM using a serum-free medium. Thereafter, 50 μl of the long-acting GDF15 fusion protein dilution was added to each well containing 50 μl of the replaced serum-free medium and the GERAL/RET/SRE-luc cell line so that the actual concentration thereof was serially diluted 3-fold from 1000 nM, followed by reaction at 37° C. and 5% CO2 for 4 hours. After 4 hours, each well was treated with 100 μl of a Bright-Glo™ solution prepared by adding a Bright-Glo™ buffer to a Bright-Glo™ substrate, followed by reaction at room temperature for 1 minute.
Thereafter, the reaction value (relative light units, RLU) was measured using a microplate reader (Perkin Elmer, Wallac Victor X5) capable of measuring luminescence. The results thereof are shown in Table 2 below and in FIGS. 1 and 2. Here, the functional activity of the long-acting GDF15 fusion protein depending on the GDF15 sequence, linker type, and length was compared based on the in-vitro GDF15 activity of FM9-6+Fc_hole (Emax 100%).

[3] = Pharmacokinetics of long-acting GDF15 fusion protein (dimer) in C57BL/6N mice; format: in vivo; conditions: 1 mg/kg subcutaneous; for Cmax: active GDF15 in serum by ELISA
Method: 6-week-old male C57BL/6N mice (Orient Bio, Republic of Korea) were purchased from Hallym Lab. Animal Inc., Republic of Korea. Animals were acclimated for 7 days, and on the day of drug administration, the mice were grouped based on the average body weight of individual mice (n=3 per blood sampling time per group). Then, FM9-4+Fc_hole, FM9-6+Fc_hole, FM11-4+Fc_hole, and FM11-6+Fc_hole were subcutaneously administered at 1 mg/kg to each group, and blood samples were collected at 4, 24, 48, 72, 96, 120, 168, and 240 hours after administration. Determination of active GDF15 in serum was achieved by enzyme-linked immunosorbent assay (ELISA), and pharmacokinetic parameters of each long-acting GDF15 fusion protein (dimer) are shown in Table 3 below.

T1 sequence (Q6UXV0 19-394, species assumed): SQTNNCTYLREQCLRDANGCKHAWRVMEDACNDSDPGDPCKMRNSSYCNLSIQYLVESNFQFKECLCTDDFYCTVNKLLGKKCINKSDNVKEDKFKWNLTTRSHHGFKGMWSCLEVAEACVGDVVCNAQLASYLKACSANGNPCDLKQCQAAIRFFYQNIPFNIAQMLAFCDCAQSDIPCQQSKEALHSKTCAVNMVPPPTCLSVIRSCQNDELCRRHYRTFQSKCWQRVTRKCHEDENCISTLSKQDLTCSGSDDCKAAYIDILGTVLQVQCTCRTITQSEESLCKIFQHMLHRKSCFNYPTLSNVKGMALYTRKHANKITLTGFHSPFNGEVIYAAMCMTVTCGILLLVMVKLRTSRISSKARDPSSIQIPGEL
T1 sequence (P07949 29-1114 partner, species assumed): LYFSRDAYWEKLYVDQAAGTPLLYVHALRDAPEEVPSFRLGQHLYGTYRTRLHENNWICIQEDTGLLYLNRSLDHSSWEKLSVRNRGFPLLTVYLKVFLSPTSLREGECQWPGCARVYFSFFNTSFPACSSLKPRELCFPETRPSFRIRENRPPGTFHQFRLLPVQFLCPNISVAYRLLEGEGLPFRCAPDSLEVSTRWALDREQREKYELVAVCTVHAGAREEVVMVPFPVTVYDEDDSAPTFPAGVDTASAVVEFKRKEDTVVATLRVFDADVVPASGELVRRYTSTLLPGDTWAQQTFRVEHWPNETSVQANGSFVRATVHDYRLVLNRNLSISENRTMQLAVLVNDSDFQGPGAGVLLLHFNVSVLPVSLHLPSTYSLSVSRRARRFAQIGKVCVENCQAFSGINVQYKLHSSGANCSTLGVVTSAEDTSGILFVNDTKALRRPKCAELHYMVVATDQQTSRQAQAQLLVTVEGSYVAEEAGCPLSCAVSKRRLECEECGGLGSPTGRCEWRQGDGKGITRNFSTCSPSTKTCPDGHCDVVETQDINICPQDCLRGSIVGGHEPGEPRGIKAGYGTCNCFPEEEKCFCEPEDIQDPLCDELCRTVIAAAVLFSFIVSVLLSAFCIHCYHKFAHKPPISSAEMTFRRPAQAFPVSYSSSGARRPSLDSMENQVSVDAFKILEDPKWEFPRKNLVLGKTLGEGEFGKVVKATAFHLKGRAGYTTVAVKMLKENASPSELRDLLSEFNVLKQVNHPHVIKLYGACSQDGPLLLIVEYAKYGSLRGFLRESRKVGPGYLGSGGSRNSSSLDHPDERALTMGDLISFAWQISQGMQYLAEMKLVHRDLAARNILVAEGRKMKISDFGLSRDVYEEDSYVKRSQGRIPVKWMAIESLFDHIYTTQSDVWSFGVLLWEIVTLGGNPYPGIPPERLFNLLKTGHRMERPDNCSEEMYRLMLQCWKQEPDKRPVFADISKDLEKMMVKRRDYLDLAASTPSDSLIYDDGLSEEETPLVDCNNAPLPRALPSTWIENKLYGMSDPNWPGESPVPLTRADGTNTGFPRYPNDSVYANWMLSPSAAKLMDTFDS

Row | Molecule | EC50 [2] [nM] | Emax (%) [2] [%] | AUClast [3] [µg·h/mL] | CL/F [3] [mL/h/kg] | T1/2,app [3] [h] | Tmax [3] [h] | Cmax [3] [ng/mL] | other results
1 | CN(C)C(=O)C(CCN1CCC(O)(c2ccc(Cl)cc2)CC1)(c1ccccc1)c1ccccc1 [Loperamide, loperamide, reference compound] | – | – | – | – | – | – | – | AUClast of acetaminophen (μg · min/mL), 3 hr ([1]; 3 hr): 1565.13 µg·min/mL; AUClast of acetaminophen (μg · min/mL), 24 hr ([1]; 24 hr): 761.04** μg · min/mL; AUClast of acetaminophen (μg · min/mL), 72 hr ([1]; 72 hr): 996.36*** μg · min/mL
2 | FM9-2 + Fc_hole: long-acting GDF15 fusion protein (dimer): GDF15 ΔN2, S64R, IgG1 Fc_knob/Fc_hole, linker GS(G4S)5; SEQ ID NOs: 99 and 47 | 9.5 | 110.8 | – | – | – | – | – | –
3 | FM9-3 + Fc_hole: long-acting GDF15 fusion protein (dimer): GDF15 ΔN2, S64R, IgG1 Fc_knob/Fc_hole, linker GS(G4S)7; SEQ ID NOs: 100 and 47 | 9.3 | 95.6 | – | – | – | – | – | –
4 | FM9-4 + Fc_hole: long-acting GDF15 fusion protein (dimer): GDF15 ΔN2, S64R, IgG1 Fc_knob/Fc_hole, linker GS(EEEA)6; SEQ ID NOs: 101 and 47 | – | – | 750.49702 | 1.30 | 36.84 | 24 | 8421.37 | EC50 values (in words) [2]: relatively low EC50 values; Emax values (in words) [2]: high Emax values
5 | FM11-2 + Fc_hole: long-acting GDF15 fusion protein (dimer): GDF15 ΔN3, G4N, D5S, H6T, S64R, IgG1 Fc_knob/Fc_hole, linker GS(G4S)5; SEQ ID NOs: 105 and 47 | 7.7 | 79.4 | – | – | – | – | – | –
6 | FM11-3 + Fc_hole: long-acting GDF15 fusion protein (dimer): GDF15 ΔN3, G4N, D5S, H6T, S64R, IgG1 Fc_knob/Fc_hole, linker GS(G4S)7; SEQ ID NOs: 106 and 47 | 7.8 | 81.0 | – | – | – | – | – | –
7 | FM11-4 + Fc_hole: long-acting GDF15 fusion protein (dimer): GDF15 ΔN3, G4N, D5S, H6T, S64R, IgG1 Fc_knob/Fc_hole, linker GS(EEEA)6; SEQ ID NOs: 107 and 47 | – | – | 690.21308 | 1.41 | 40.61 | 24 | 7200.02 | EC50 values (in words) [2]: relatively low EC50 values; Emax values (in words) [2]: high Emax values
8 | FM11-6 + Fc_hole: long-acting GDF15 fusion protein (dimer): GDF15 ΔN3, G4N, D5S, H6T, S64R, IgG1 Fc_knob/Fc_hole, linker GS(EAAAK)5; SEQ ID NOs: 109 and 47 | – | – | 116.43394 | 8.43 | 25.84 | 24 | 1547.77 | –
